The supplement of paper PMC7877785
± gives the uncertainty stated by the source.

Assay: self-splicing fitness, log relative to wild type (ln ratio); higher = more splicing; Tetrahymena group I intron in knt gene, E. coli kanamycin selection, DiMSum; sequences stand for … in CUCUCU…GGAGGGAAAAGUUAUCAGGCAUGCACCUGGUAGCUAGUCUUUAAACCAAUAGAUUGCAUCGGUUUAAAAGGCAAGACCGUCAAAUUGCGGGAAAGGGGUCAACAGCCGUUCAGUACCAAGUCUCAGGGGAAACUUUGAGAUGGCCUUGCAAAGGGUAUGGUAAUAAGCUGACGGACAUGGUCCUAACCACGCAGCCAAGUCCUAAGUCAACAGAUCUUCUGUUGAUAUGGAUGCAGUUCACAGACUAAAUGUCGGUCGGGGAAGAUGUAUUCUUCUCAUAAGAUAUAGUCGGACCUCUCCUUAAUGGGAGCUAGCGGAUGAAGUGAUGCAACACUGGAGCCGCUGGGAACUAAUUUGUAUGCGAAAGUAUAUUGAUUAGUUUUGGAGUACUCGUGGUCG
Procedure, shortened: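 Fitness was computed with DiMSum as the error-weighted combination of replicate fold changes, kanamycin versus none, each normalised to wild type. The library randomised all eight intron nucleotides of the P1ex region, with the intron placed in the knt kanamycin-resistance gene on pET-22b(+) in E. coli BL21(DE3). Six replicate transformations were grown overnight at 37°C or 30°C on LB agar with or without 25 μg/mL kanamycin, plus 100 μg/mL carbenicillin, 50 μM IPTG and 0.2% rhamnose. Pooled colonies were amplicon-sequenced on an Illumina HiSeq 2500.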

Row | Sequence | self-splicing fitness (ln) (30 °C) | self-splicing fitness (ln) (37 °C)
1 | AAGAAGCAAUAUUACGGUUA | -0.783 ± 0.15 | -0.983 ± 0.12
2 | AAGAAGCAAUAUUACGUAGA | -2.64 ± 0.13 | -1.01 ± 0.11
3 | AAGAAGCAAUAUUACGUCUG | -0.345 ± 0.054 | 0.0995 ± 0.071
4 | AAGAAGCAAUAUUACGUGUG | -2.3 ± 0.09 | -0.663 ± 0.081
5 | AAGCAGCAAUAUUACGAAGU | -3.3 ± 0.13 | -1.34 ± 0.13
6 | AAGCAGCAAUAUUACGAAUU | -0.851 ± 0.069 | 0.12 ± 0.099
7 | AAGCAGCAAUAUUACGAGCC | -3.37 ± 0.34 | -1.2 ± 0.24
8 | AAGCAGCAAUAUUACGAGGC | -1.38 ± 0.13 | -2.17 ± 0.22
9 | AAGCAGCAAUAUUACGAGGU | -3.55 ± 0.16 | -2.65 ± 0.19
10 | AAGCAGCAAUAUUACGAUGG | -2.99 ± 0.13 | -1.84 ± 0.14
11 | AAGCAGCAAUAUUACGAUGU | -1.3 ± 0.06 | -0.566 ± 0.078
12 | AAGCAGCAAUAUUACGCACG | -1.15 ± 0.079 | -0.574 ± 0.095
13 | AAGCAGCAAUAUUACGCAUC | -2.72 ± 0.18 | –
14 | AAGCAGCAAUAUUACGCCCU | -0.309 ± 0.14 | 0.0798 ± 0.18
15 | AAGCAGCAAUAUUACGCCGG | -1.52 ± 0.11 | -0.994 ± 0.17
16 | AAGCAGCAAUAUUACGCCUC | – | -1.22 ± 0.4
17 | AAGCAGCAAUAUUACGCCUU | -2.42 ± 0.16 | -1.35 ± 0.12
18 | AAGCAGCAAUAUUACGCGCG | -1.16 ± 0.082 | -0.105 ± 0.1
19 | AAGCAGCAAUAUUACGGAAC | -3.6 ± 0.3 | –
20 | AAGCAGCAAUAUUACGGAAU | -3.08 ± 0.13 | -1.66 ± 0.11
21 | AAGCAGCAAUAUUACGGACA | -1.69 ± 0.16 | 0.0141 ± 0.11
22 | AAGCAGCAAUAUUACGGAGA | -2.7 ± 0.13 | -1.44 ± 0.13
23 | AAGCAGCAAUAUUACGGAGU | -3.69 ± 0.13 | -1.15 ± 0.1
24 | AAGCAGCAAUAUUACGGCCC | 0.22 ± 0.14 | 0.271 ± 0.17
25 | AAGCAGCAAUAUUACGGCGA | -0.328 ± 0.075 | 0.355 ± 0.094

Row | Sequence | self-splicing fitness (ln) (30 °C) | self-splicing fitness (ln) (37 °C)
26 | AAGCAGCAAUAUUACGGGAU | -3.63 ± 0.14 | -1.92 ± 0.1
27 | AAGCAGCAAUAUUACGGUGU | -1.85 ± 0.09 | -0.979 ± 0.12
28 | AAGCAGCAAUAUUACGGUUA | -0.142 ± 0.072 | 0.0491 ± 0.087
29 | AAGCAGCAAUAUUACGUAAA | -1.84 ± 0.087 | -0.803 ± 0.11
30 | AAGCAGCAAUAUUACGUACC | -1.17 ± 0.19 | -0.569 ± 0.22
31 | AAGCAGCAAUAUUACGUCCA | -0.662 ± 0.089 | -0.156 ± 0.1
32 | AAGCAGCAAUAUUACGUCGG | -2.24 ± 0.1 | -1.7 ± 0.17
33 | AAGCAGCAAUAUUACGUCUU | -1.66 ± 0.075 | -1.05 ± 0.071
34 | AAGCAGCAAUAUUACGUGCG | -0.989 ± 0.073 | -0.0742 ± 0.092
35 | AAGCAGCAAUAUUACGUGGG | -3.54 ± 0.13 | -1.36 ± 0.084
36 | AAGCAGCAAUAUUACGUGUC | -2.94 ± 0.15 | -2.01 ± 0.15
37 | AAGCAGCAAUAUUACGUUAU | -2.38 ± 0.089 | -1.21 ± 0.1
38 | AAGCAGCAAUAUUACGUUGC | -2.46 ± 0.099 | -3.24 ± 0.21
39 | AAGCAGCAAUAUUACGUUUG | -3.04 ± 0.13 | -1.73 ± 0.14
40 | AAGCAGCAAUAUUACGUUUU | -3.3 ± 0.14 | -2.52 ± 0.14
41 | AAGGAGCAAUAUUACGAAGG | -3.3 ± 0.28 | -2.99 ± 0.41
42 | AAGGAGCAAUAUUACGAAGU | -3.53 ± 0.43 | -2.57 ± 0.36
43 | AAGGAGCAAUAUUACGACAA | -2.38 ± 0.2 | -2.16 ± 0.33
44 | AAGGAGCAAUAUUACGACAU | -2.282 ± 0.02 | -1.6 ± 0.037
45 | AAGGAGCAAUAUUACGACCU | -0.0623 ± 0.16 | -0.475 ± 0.2
46 | AAGGAGCAAUAUUACGAGAA | -3.76 ± 0.42 | -2.22 ± 0.24
47 | AAGGAGCAAUAUUACGAGAC | -2.03 ± 0.44 | –
48 | AAGGAGCAAUAUUACGAGUG | – | -2.2 ± 0.4
49 | AAGGAGCAAUAUUACGAGUU | -3.53 ± 0.17 | -1.65 ± 0.12
50 | AAGGAGCAAUAUUACGAUAC | -3.49 ± 0.39 | -3.25 ± 0.37

Row | Sequence | self-splicing fitness (ln) (30 °C) | self-splicing fitness (ln) (37 °C)
51 | AAGGAGCAAUAUUACGAUAG | -4.31 ± 0.46 | -2.87 ± 0.43
52 | AAGGAGCAAUAUUACGCAAA | -3.1 ± 0.3 | -2.7 ± 0.32
53 | AAGGAGCAAUAUUACGCACA | – | -1.89 ± 0.47
54 | AAGGAGCAAUAUUACGCCGU | -1.14 ± 0.27 | -1.16 ± 0.37
55 | AAGGAGCAAUAUUACGCGAA | -1.94 ± 0.22 | -1.39 ± 0.23
56 | AAGGAGCAAUAUUACGCGCC | -2.85 ± 0.24 | -1.19 ± 0.17
57 | AAGGAGCAAUAUUACGCGUC | -2.96 ± 0.37 | –
58 | AAGGAGCAAUAUUACGCUAA | -2.97 ± 0.23 | -1.51 ± 0.2
59 | AAGGAGCAAUAUUACGGCAA | -2.54 ± 0.39 | –
60 | AAGGAGCAAUAUUACGGCAU | -2.77 ± 0.18 | -2.05 ± 0.23
61 | AAGGAGCAAUAUUACGGCCU | -1.62 ± 0.12 | -0.486 ± 0.12
62 | AAGGAGCAAUAUUACGGCGC | -2 ± 0.27 | -2.34 ± 0.48
63 | AAGGAGCAAUAUUACGGGAA | -2.09 ± 0.2 | -3.29 ± 0.24
64 | AAGGAGCAAUAUUACGGUGG | -3.21 ± 0.15 | -2.45 ± 0.27
65 | AAGGAGCAAUAUUACGUACC | -3.01 ± 0.33 | -3.19 ± 0.41
66 | AAGGAGCAAUAUUACGUAGA | -3.27 ± 0.26 | -1.46 ± 0.18
67 | AAGGAGCAAUAUUACGUAUU | -2.95 ± 0.12 | -2.34 ± 0.15
68 | AAGUAGCAAUAUUACGAAGU | -3.02 ± 0.2 | -1.9 ± 0.18
69 | AAGUAGCAAUAUUACGAGCC | -2.87 ± 0.22 | -1.34 ± 0.25
70 | AAGUAGCAAUAUUACGCACU | -0.686 ± 0.095 | -0.854 ± 0.14
71 | AAGUAGCAAUAUUACGCAGA | -4.11 ± 0.24 | -1.54 ± 0.1
72 | AAGUAGCAAUAUUACGCAGU | – | -1.76 ± 0.19
73 | AAGUAGCAAUAUUACGCCGC | -3.12 ± 0.38 | –
74 | AAGUAGCAAUAUUACGCCUA | -0.227 ± 0.11 | -0.477 ± 0.12
75 | AAGUAGCAAUAUUACGCCUG | -0.259 ± 0.14 | -0.00805 ± 0.14

Row | Sequence | self-splicing fitness (ln) (30 °C) | self-splicing fitness (ln) (37 °C)
76 | AAGUAGCAAUAUUACGCGCC | -0.381 ± 0.2 | -0.0421 ± 0.23
77 | AAGUAGCAAUAUUACGCGGU | -2.47 ± 0.31 | -2.59 ± 0.39
78 | AAGUAGCAAUAUUACGCGUG | -0.856 ± 0.067 | -0.191 ± 0.092
79 | AAGUAGCAAUAUUACGCUAU | -4.06 ± 0.35 | -1.9 ± 0.17
80 | AAGUAGCAAUAUUACGCUGA | -1.36 ± 0.15 | -0.457 ± 0.14
81 | AAGUAGCAAUAUUACGCUUG | -1.6 ± 0.097 | -0.42 ± 0.1
82 | AAGUAGCAAUAUUACGGGUC | -3.44 ± 0.16 | -2.84 ± 0.19
83 | AAGUAGCAAUAUUACGUACU | -0.863 ± 0.19 | -0.429 ± 0.19
84 | AAGUAGCAAUAUUACGUCCU | -0.128 ± 0.11 | 0.294 ± 0.14
85 | AAGUAGCAAUAUUACGUGCU | -1.29 ± 0.08 | -0.982 ± 0.1
86 | AAGUAGCAAUAUUACGUGGU | -3.68 ± 0.18 | -1.93 ± 0.15
87 | AAGUAGCAAUAUUACGUUAU | -1.93 ± 0.13 | -0.642 ± 0.11
88 | AAGUAGCAAUAUUACGUUCA | -0.86 ± 0.081 | 0.409 ± 0.096
89 | AAUAAGCAAUAUUACGACCA | -0.614 ± 0.18 | 0.141 ± 0.29
90 | AAUAAGCAAUAUUACGAGAA | -3.24 ± 0.38 | -1.55 ± 0.27
91 | AAUAAGCAAUAUUACGAGUG | -1.05 ± 0.07 | -0.56 ± 0.09
92 | AAUAAGCAAUAUUACGAUAA | -1.9 ± 0.19 | -1.03 ± 0.18
93 | AAUAAGCAAUAUUACGAUUA | -0.789 ± 0.12 | 0.438 ± 0.14
94 | AAUAAGCAAUAUUACGCGAG | -1.14 ± 0.097 | -0.557 ± 0.1
95 | AAUAAGCAAUAUUACGCUUU | -3.49 ± 0.21 | -3.26 ± 0.23
96 | AAUAAGCAAUAUUACGGAGG | -3.19 ± 0.18 | -1.93 ± 0.2
97 | AAUAAGCAAUAUUACGGAUA | -2.35 ± 0.14 | -1.68 ± 0.15
98 | AAUAAGCAAUAUUACGGCUU | -0.403 ± 0.12 | -0.12 ± 0.14
